Measured values as given in PMC10404625 (The Journal of Biological Chemistry, 2023).
Ends that are not written are not given here.

Legend:
Assay in all cases: MST
[1] = target: three Rpc53 N-ter mutant peptides
Rpc25/17 heterodimer = target: T1, Rpc25/17 heterodimer (S. cerevisiae, UniProt P35718 1-212; P47076 1-161)
T1 sequence (looked up) 1: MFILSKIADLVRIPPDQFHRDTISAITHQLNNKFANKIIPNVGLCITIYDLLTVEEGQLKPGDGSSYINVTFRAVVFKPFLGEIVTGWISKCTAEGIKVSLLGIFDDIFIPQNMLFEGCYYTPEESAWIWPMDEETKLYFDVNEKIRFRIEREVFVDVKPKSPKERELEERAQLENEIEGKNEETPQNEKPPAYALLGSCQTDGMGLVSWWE
T1 sequence (looked up) 2: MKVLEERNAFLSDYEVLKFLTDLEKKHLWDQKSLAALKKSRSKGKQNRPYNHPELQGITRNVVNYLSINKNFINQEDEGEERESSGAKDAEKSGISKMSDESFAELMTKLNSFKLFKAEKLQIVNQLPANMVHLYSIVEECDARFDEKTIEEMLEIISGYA

full-length Rpc37 = target: T2, full-length Rpc37 (S. cerevisiae, UniProt P36121 1-282)
T2 sequence (looked up): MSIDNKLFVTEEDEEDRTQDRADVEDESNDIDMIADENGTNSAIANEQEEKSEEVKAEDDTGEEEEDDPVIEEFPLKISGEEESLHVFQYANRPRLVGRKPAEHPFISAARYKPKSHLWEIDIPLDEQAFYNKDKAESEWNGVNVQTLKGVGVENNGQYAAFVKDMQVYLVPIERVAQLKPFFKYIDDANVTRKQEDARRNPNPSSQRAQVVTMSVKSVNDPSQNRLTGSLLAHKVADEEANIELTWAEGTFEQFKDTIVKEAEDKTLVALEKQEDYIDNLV

Tfc4 N-ter (1–580) = target: T3, Tfc4 N-ter (1–580) (S. cerevisiae, UniProt P33339 1-580)
T3 sequence (looked up): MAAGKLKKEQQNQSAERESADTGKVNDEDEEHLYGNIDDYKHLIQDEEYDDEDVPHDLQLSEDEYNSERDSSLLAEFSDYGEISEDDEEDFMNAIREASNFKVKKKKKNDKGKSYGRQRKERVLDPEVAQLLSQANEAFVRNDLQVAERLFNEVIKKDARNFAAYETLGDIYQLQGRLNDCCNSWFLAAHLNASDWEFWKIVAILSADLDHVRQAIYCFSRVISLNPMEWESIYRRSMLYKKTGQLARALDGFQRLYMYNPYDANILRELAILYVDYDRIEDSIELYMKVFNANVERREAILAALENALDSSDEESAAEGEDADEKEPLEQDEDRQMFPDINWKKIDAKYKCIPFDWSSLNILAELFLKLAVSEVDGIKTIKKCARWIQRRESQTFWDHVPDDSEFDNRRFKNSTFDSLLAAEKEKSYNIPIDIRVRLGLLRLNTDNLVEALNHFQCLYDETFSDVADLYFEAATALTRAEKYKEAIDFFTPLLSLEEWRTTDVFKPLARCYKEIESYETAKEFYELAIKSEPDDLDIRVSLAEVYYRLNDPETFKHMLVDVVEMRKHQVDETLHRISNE

[2] = target: T4, Rpc53/37 dimerization module (Rpc53 (274–422)/Rpc37 (71–181)) (S. cerevisiae, UniProt P25441 274-422; P36121 71-181)
T4 sequence (looked up) 1: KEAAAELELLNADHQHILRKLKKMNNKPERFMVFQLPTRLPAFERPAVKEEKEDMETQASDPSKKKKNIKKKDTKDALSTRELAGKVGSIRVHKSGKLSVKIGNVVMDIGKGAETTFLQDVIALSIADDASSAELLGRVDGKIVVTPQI
T4 sequence (looked up) 2: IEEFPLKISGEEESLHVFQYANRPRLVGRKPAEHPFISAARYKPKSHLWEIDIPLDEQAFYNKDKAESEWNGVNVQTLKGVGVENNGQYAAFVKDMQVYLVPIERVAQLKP

| Binder | Kd [1] [nM] | Kd (Rpc25/17 heterodimer) [nM] | Kd (full-length Rpc37) [nM] | Kd (Tfc4 N-ter (1–580)) [nM] | Kd [2] [nM] |
| --- | --- | --- | --- | --- | --- |
| Tfc4 N-ter (1–580) (domain or fragment) MAAGKLKKEQQNQSAERESADTGKVNDEDEEHLYGNIDDYKHLIQDEEYDDEDVPHDLQLSEDEYNSERDSSLLAEFSDYGEISEDDEEDFMNAIREASNFKVKKKKKNDKGKSYGRQRKERVLDPEVAQLLSQANEAFVRNDLQVAERLFNEVIKKDARNFAAYETLGDIYQLQGRLNDCCNSWFLAAHLNASDWEFWKIVAILSADLDHVRQAIYCFSRVISLNPMEWESIYRRSMLYKKTGQLARALDGFQRLYMYNPYDANILRELAILYVDYDRIEDSIELYMKVFNANVERREAILAALENALDSSDEESAAEGEDADEKEPLEQDEDRQMFPDINWKKIDAKYKCIPFDWSSLNILAELFLKLAVSEVDGIKTIKKCARWIQRRESQTFWDHVPDDSEFDNRRFKNSTFDSLLAAEKEKSYNIPIDIRVRLGLLRLNTDNLVEALNHFQCLYDETFSDVADLYFEAATALTRAEKYKEAIDFFTPLLSLEEWRTTDVFKPLARCYKEIESYETAKEFYELAIKSEPDDLDIRVSLAEVYYRLNDPETFKHMLVDVVEMRKHQVDETLHRISNE | 40 to 100 | – | – | – | – |
| Rpc53 N-ter (1–57) fragment (domain or fragment, S. cerevisiae, UniProt P25441 1-57, looked up, also: Alexa Fluor 647 via NHS ester, position not given here) MSSNKGNGRLPSLKDSSSNGGGSAKPSLKFKPKAVARKSKEEREAAASKVKLEEESK | – | 230 ± 170 | 8.2 ± 1.7 | 5.6 ± 1.7 | 1620 ± 650 |
